Measurements published in the nanobody polyreactivity screen of Harvey et al. (2022).

Assay: yeast display, Sf9 membrane polyspecificity reagent, FACS + sequencing; frameworks hold sequencing errors
Method in brief: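 A nanobody's polyreactivity label depends on the gate it was sorted from. Yeast display cells were stained with 10% biotinylated, detergent-solubilized Sf9 membrane reagent for 1 hour at 4 °C, enriched on streptavidin microbeads and sorted by FACS. The low and high (top ~1%) gates were set on anti-HA fluorescence for expression and streptavidin fluorescence for reagent binding.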

Row | Sequence | polyreactivity (PSR sort gate)
1 | QVQLVESGRGLVQAGGSLRLSCHASGFTFSPYTMGWSRQAPGKERELVATIRYDCTSTYYADSVKGRFTISRDNAKNTVYLQMNSLKPEDTAVYYCAADIWRVYSTFYYWGQGTEVTVSS | low polyreactivity
2 | QVQLVESGRGLVQAGGSLSLSCAASGITFGNYAMGWYRQAPGKERELVAAITGSGGRTYYADSVKVRFTISRDNAKNTVYLQMNSLKPEDTAVYDCAAKQYTRFGYYYWGQGTQLTVSS | high polyreactivity
3 | QVQLVESGRGLVQEGGSLRLSCAPSGSTFYRFAMGWYRQAPGKERELVAAISASGGSTYYADSVKGRFTISRDNAKYTVYLQMNSLKPEDTEVYYCNRDRRYRNDYWGQGTQVTVST | high polyreactivity
4 | QVQLVESGRGLVQEGGSLRLSCASSGSTFKVYAMGWYRQAPGKERELVAAISQSGGSTYYADSVKGRFTISRDNAKNTVYIQMNSLKPEDTAVYYCAVRTYVYNWSFSSLPYDYWGQGTQVTVSS | high polyreactivity
5 | QVQLVESGRRLVQAGGSLRLSCAASGINFDSYAMGWYRQAPGKERELVAAITSDSGRTYYADSVTGRFTISRDNAKNTVYLQMNSVKPEDTPVYYCAKRWDGPYDYWGQGTQVTVSS | low polyreactivity
6 | QVQLVESGRRLVQAGGSLRLSCAASGSIFIPNVMGWYRQAPRKERELVASIRSNGGTNYADSVKGRFTISRDNAKNTVYLQMNSLKPEDTAVYNCAAKRWSYRHGFDYLGQGTQVTVSS | high polyreactivity
7 | QVQLVESGSGLVQAGGSLRLSCAHSGFTVSYYVMGWYRQAPGKERELVAAISWSGGSTYYADSVKGRFTISLDNAKNTVYLQMNSLKPEDTAFYYCNADDWRDDYEYWGQGTQVTVSS | high polyreactivity
8 | QVQLVESGVGIVQAGCSLRLSCAASGSIFRYYAMGLYRQAPGKERELVAGITASTGRTYYADSVKGRFTISRDNAKNTVYLQMNSLKPEDTAVYYCAARSRYYEYDYWGQGTQVTVSS | low polyreactivity
9 | QVQLVESGVGIVQAGRSHRVSCAASGSTYNPYAMGWYRQAPGKESELVARIRGSGGSTYYADSVKVRFTISRDNAKNPVFLHMNSQKPEDTAVYYCATDDYYLSRYRLVGYYSWGQGTQVTVSS | high polyreactivity
10 | QVQLVESGVGLDQARGSLRLSCAASGITFDDYAMGWYRQAPGKERELVAAISVSGGDTYYADSVKGRFTISRDNAKNTVYLQMNSLKPEDSAVYYCAAEEVSPRWYEYWGQGTQVTVSS | low polyreactivity
11 | QVQLVESGVGLDQARVSLRLSCAASGFTFGQYVMGWYRQAPGKEREFVAIISRSVDSTYYADSVKGRFTISRDNAKNTVYLQMNSLNPEDTAVYYCNARGKRRGKIPYSSYASSYDSWGQGTQVTVSS | high polyreactivity
12 | QVQLVESGVGLGQAGGSLRLSCAASGRIFSRYAMGWYRPAPGKERELVATITRRGGSTSYADSVKGRFTISRDNAKNTVFLQMNCLKPEDTAVYYCAAQSFYGIYYGKQDYDYWGQGTQVTVSS | high polyreactivity
13 | QVQLVESGVGLLQAGGSLRISCAASGSIFFDNSMGRYRQAPGKERELVAAITWSGSRTYYADSVKGRFTISRDNAKNTVYLQMNSLKPEDTAVYYSNAVYWWYWALFTVGRYDYWGQGTQVTVSS | high polyreactivity
14 | QVQLVESGVGLVKAGGSLRLSCAASGSTFNGYGMGWYRQAPGKERELVAAMSWSGGSTYYADSVKGRFTISRDNAKNTGYLLMNSLKPEDTAVYYCAALTHYGGYGYTYDYWGQGTQVTVSS | low polyreactivity
15 | QVQLVESGVGLVQAGCSHRLSCAASGSTISAYDMGSYRQAPGKERELVAAITWIGGNTYYADSVKGRFTISRDNAKNTVYLQMNSLKPEDTAVYYCAAEEVPYDRDMDYWGQGTQVTVSS | low polyreactivity
16 | QVQLVESGVGLVQAGGRLRLICAASGITFGPNALGWYRQAPGKERELVAAISWRGGSTYNADSVKGRFTISRDNGKNTVYLQMNSLKPEDTAVYYCAADLAYGAMVYWGQGTQVTVSS | low polyreactivity
17 | QVQLVESGVGLVQAGGRLRLSCAASGSIFASSAMGWYRKAPGKERELVAVINSYDRTNYADSVKGRFTISRDNAKNTVYLKMNSLKPEDTAVYYCNADAIRIIPAYDYWGQGTQVTVSS | low polyreactivity
18 | QVQLVESGVGLVQAGGSHPLSCAASGSTLRYAMGWNRQAPGKETELVAAISRTGGSTYYADSVKGRFTISRDNAKNTVYLQMNSLKPEDPAVYYCAARYFTSYPLYYYWGQGTQVTVSS | high polyreactivity
19 | QVQLVESGVGLVQAGGSLRLICAASGRNFRTNAMGWYRQAPGKERELVAAISTGGGITKYADSVKGRFTISRDNSKNTVYLQMNSLKPEDTAVYYCAADAVNTLDYWGQGTQVTVSS | low polyreactivity
20 | QVQLVESGVGLVQAGGSLRLICAASGSTFAYNDMGWYRQAPGKERELVAAINGGGGSTYYGDSVKGRFTISRDNAKNTVYLHMNSLKPEVTAVYYCAKGEWSYVDSFGPYYDLVYWGQGTQVTVSS | low polyreactivity
21 | QVQLVESGVGLVQAGGSLRLICGASGFTFDYNSMVWYRQAPGKERELVAAISASGGSTYYADSVKGRFTISRDNAKNTVYLQMKSLKPEDTAVYYCNAGRVTRRDTFDYWGQGTQVTVSS | high polyreactivity
22 | QVQLVESGVGLVQAGGSLRLRCAASGFIFIHNAMGWYRQAPGKERELVAAISYSGGSTYYADSVKGRFTISRDTAKNTVYLQMNSLKPEDTAVYFCNRVQYYRADRMDYWGQGTQVTVSS | low polyreactivity

Row | Sequence | polyreactivity (PSR sort gate)
23 | QVQLVESGVGLVQAGGSLRLSCAAAGYIFFFYAMGWYRQAPGKERELVASITYRGGSTYYADSVKGRFTISRDNAKNTVYLHMNSLKPEDTAVYYCNVDGGGPLGPQGFPFDYWGQGTQVTVSS | low polyreactivity
24 | QVQLVESGVGLVQAGGSLRLSCAASASTFYGYTMGWNRQAPGKERELVAAITSTGRTYYADSVKGRFTISRDNAKNTVYLQMNSLKPEDTAVYYCAKKSSARRYDYDYWGQGTQVTVSS | high polyreactivity
25 | QVQLVESGVGLVQAGGSLRLSCAASGFIFPTNTMGWYRQAPGKEREFVARITRSGTNTYYADSVKGRFTISRDNAKNTVYLQMNSLKPEDTAVYYCATRYYHFNYWGQATQVTVSS | high polyreactivity
26 | QVQLVESGVGLVQAGGSLRLSCAASGFIFYYYAMGWYRQAPGKERELVAAISTDGGSTYYADSVKGRFTISRDNAKNTVYLQMNSLKPEDTAVYYCNAPYYGWGYWPLEYIRYEYWGQGTQVTVST | low polyreactivity
27 | QVQLVESGVGLVQAGGSLRLSCAASGFLFKYNAMGWYRQAPAKERELVAAISWSGSRTYYADSVKGRFTISRDNAKNTVYLQMNSLKPEDTAVYYCNAVSWRTSRYDYWGQGTQVTVSS | high polyreactivity
28 | QVQLVESGVGLVQAGGSLRLSCAASGFTFPYYAMGWYIQAPGKERELVAAISSGGRTNYADSVKGRFTISRDNAKNTVYLQMNSLKPEDTAVYDCATRSYVFAWEFNYWGQVTQVTVSS | high polyreactivity
29 | QVQLVESGVGLVQAGGSLRLSCAASGFTFQYYAMGWYRQAPGKERELVAAITRGDSTNYADSVKGRFTISRDNAKNTVYLQMNSLKPEDTAVYYCAAGSAPSYWGGWYYERDYWGQGTQVTVSS | low polyreactivity
30 | QVQLVESGVGLVQAGGSLRLSCAASGFTLGRNAMGWYRQAPGKERELVASISGRGGSSYYADSVKGRFTISRDNAKNSVYLQMNSLKPEDTAVYYCAARGVSGKYYYWGQGTQVTVSS | high polyreactivity
31 | QVQLVESGVGLVQAGGSLRLSCAASGGIFFYYAMGWSRQAPGKERELVAAISYSGGSTYYADSVKGRFTISRDNAKHTVYLQMNSVKPDDTAVNYCAAVPDYYEYSPYDYWGQGTQVTVSS | low polyreactivity
32 | QVQLVESGVGLVQAGGSLRLSCAASGGTFVTYAMGWFSQAPGKERELVAAISATDGRTYNADSVKGRFTISRDNAKNTVYLQMNSLKPADTAVYYCAAVGPYTQSRGKYSNLFYWGQGTQVTVSS | high polyreactivity
33 | QVQLVESGVGLVQAGGSLRLSCAASGIIFKNYTRGWDRPAPWKEWELVAAISWRGGRTYYADSVKGRFTISRDNAKNTVYLQMNSLKPEDTAVYYCAKELYVSYRGGPWVDYWGQGTQVTVSS | high polyreactivity
34 | QVQLVESGVGLVQAGGSLRLSCAASGIIFSSYAMGWYRQAPGKERELVAAITWNGGRTYYADSVKGRFTISRDNAKNSVYLQMNSLKPEDTAVYYCAALQGRSSARQDSYGYWGQGTQVTVSS | high polyreactivity
35 | QVQLVESGVGLVQAGGSLRLSCAASGIIFTSNTMGWYRPAPGKEREFVASINWNGSSTYADSVKGRFTISRDNAKNTVYLQMNSLKPEDTAVYYCNADYKRNSVQFSLYDYWGQGTQVTVSS | low polyreactivity
36 | QVQLVESGVGLVQAGGSLRLSCAASGIIFVTYTMAWYRQAHGKEREFVAAITRRGSRTYYADSVKGRFTISRDNAKNTVYLQMNSPKPEDTAVYYCNAVPRWSYVDEDSWGQGTQVTVSS | high polyreactivity
37 | QVQLVESGVGLVQAGGSLRLSCAASGIIFYPNAMGWYRQAPGKERELVAAISWRSGSTYYADSVKGRFTISRDNAKKTVYLQMNSLKPEDTAVYYCNADFWYSYGYDYWGQGTQVTVSS | low polyreactivity
38 | QVQLVESGVGLVQAGGSLRLSCAASGITFYGYAMGWYRQAPGKDRELVAAINWGGTGTYYADSVKGRFTISRDNAKNTVYFQMNSLKPEDTAVYYCNKAGDPIADPTAGKRQFDYWGQGTQVTVSS | low polyreactivity
39 | QVQLVESGVGLVQAGGSLRLSCAASGITSRYYAMGCYRQAPGKERELVAAISGNGGRTYYADSVKGRFTISRDIAKNSVYFQMNSMKPEDTAVYYCAARAHKTRHNYWGQGTQVTVSS | high polyreactivity
40 | QVQLVESGVGLVQAGGSLRLSCAASGLIFYRYAMGWNRQAPGKERELVAAISWSGGTTYYADSVKGRFTISRDNAKNTVYLQMNSLKPEDTAVYYCAATRLRTEYYWGQGTQVTVSS | high polyreactivity
41 | QVQLVESGVGLVQAGGSLRLSCAASGRIFHLYAMGWYRQAPGKERELVAAITFSGGSTYYADSVKGRFTISRDNAMNTVYLQMNSLKPEDTAVYYFAKRSFYWFSSRLPFKYDYWGQGTQVTVSS | low polyreactivity
42 | QVQLVESGVGLVQAGGSLRLSCAASGRIFPGNVMGWYIQAPGKERELVAAISRGGGSTYYADSVKGRFTISRDIAKNTVYAQMNSLKPEDTAVYYCNVLRYQSRFRYDYWGLGTQVTVSS | high polyreactivity
43 | QVQLVESGVGLVQAGGSLRLSCAASGRIFSKYAMGWYRQAPGKERELVAAISANGGGSTYYADSVKGRFTISRDNAKNTFYLQMNSLKPEDSAVYYCAALAYSTTRGRLDYWGQGTQVTVSS | high polyreactivity
